From article PMC8378251, “Biochemical and Structural Characterisation of a Novel D-Lyxose Isomerase From the Hyperthermophilic Archaeon Thermofilum sp” (Frontiers in Bioengineering and Biotechnology, 2021)

Molecular target: the molecule itself
Test: SEC; calibrated Superdex 200 pg HiLoad 16/600, 25 mM Tris-HCl pH 8.0, 150 mM NaCl, 1.0 ml/min; apparent molecular mass ~46 kDa

B1: D-lyxose isomerase from Thermofilum sp. (TsLI) (enzyme, Thermofilum sp. ex4484_79)
chain: MLTKELVKEAREKAIRMLEKACIAITDEEKEKIEVTDFGLGVLYTFGLEILVYVNNERYCAKELVMFPRQICPEHRHPPIGSYLGKQETFRCRWGEVYLYVPGTPTPNPRARIPEEKKRYFTVWHEIVLRPGEQYTIPPNTLHWFQAGDEGAIVSEFSSQSIDEKDIFTDPNVKRIPEIV
notes: locus tag B6U94_07925; synthetic gene cloned into pET19b; subunit about 23 kDa; Homodimer; in the crystal the two monomers are joined by a disulfide bond between C22 of each subunit; No removal of the His tag is described; also called T. sp; LI; source: E. coli Rosetta (DE3) pLysS, purified (heat precipitation at 75°C, Ni-NTA, SEC)
stoichiometry N: 2
